In article PMC2964679, “Characterization of exceptionally thermostable single-stranded DNA-binding proteins from Thermotoga maritima and Thermotoga neapolitana” (BMC Microbiology, 2010):

B1: (dT)120 (ssDNA)
DNA: TTTTTTTTTTTTTTTTTTTTTTTTTTTTTTTTTTTTTTTTTTTTTTTTTTTTTTTTTTTTTTTTTTTTTTTTTTTTTTTTTTTTTTTTTTTTTTTTTTTTTTTTTTTTTTTTTTTTTTTT
B2: (dT)60 (ssDNA)
DNA: TTTTTTTTTTTTTTTTTTTTTTTTTTTTTTTTTTTTTTTTTTTTTTTTTTTTTTTTTTTT
B3: single-stranded DNA-binding protein from Thermotoga maritima (TmaSSB) (natural protein, UniProt Q9WZ73 1-141, looked up)
chain: MSFFNKIILIGRLVRDPEERYTLSGTPVTTFTIAVDRVPRKNAPDDAQTTDFFRIVTFGRLAEFARTYLTKGRLVLVEGEMRMRRWETPTGEKRVSPEVVANVVRFMDRKPAETVSETEEELEIPEEDFSSDTFSEDEPPF
notes: ssb gene amplified with primers from the ATG start codon to the TGA stop codon, cloned between NdeI and HindIII of pET30Ek/LIC (pETSSBTma); No tag is mentioned; cloning between NdeI and HindIII with the gene's own stop codon probably leaves out the vector's tags (surmised); also called T. maritima SSB; source: E. coli BL21(DE3)pLysS, purified (heat treatment at 80°C, QAE-cellulose, …)
B4: single-stranded DNA-binding protein from Thermotoga neapolitana (TneSSB) (natural protein, UniProt D1M925 1-142, looked up)
chain: MSFFNRIILIGRLVRDPEERYTLSGTPVTTFTIAVDRVPRKNAPDDAQTTDFFRVVTFGRLAEFARTYLTKGRLILVEGEMRMRRWETQTGEKRVSPEVVANVVRFMDRKPVEMPSEDIEEKLEIPEEDFTDDTFSEDEPPF
notes: ssb gene amplified with primers from the ATG start codon to the TGA stop codon, cloned between NdeI and HindIII of pET30Ek/LIC (pETSSBTne); No tag is mentioned; cloning between NdeI and HindIII with the gene's own stop codon probably leaves out the vector's tags (surmised); also called T. neapolitana SSB; source: E. coli BL21(DE3)pLysS, purified (heat treatment at 80°C, QAE-cellulose, …)
B5: (dT)76 (titration) (ssDNA)
DNA: TTTTTTTTTTTTTTTTTTTTTTTTTTTTTTTTTTTTTTTTTTTTTTTTTTTTTTTTTTTTTTTTTTTTTTTTTTTT
B6: (dT)76 (ssDNA)
DNA: B5 DNA

How the values were obtained:
TneSSB [1] = molecular target: T1, TneSSB (Thermotoga neapolitana DSM 4359, UniProt D1M925 1-142); assay: EMSA (agarose); 2 or 100 mM NaCl; two tetramers at high protein; 20 mM Tris-HCl pH 7.5, 1 mM EDTA, 2 or 100 mM NaCl, 25°C; EMSA 10 pmol oligo (1.5 pmol M13) with 10-200 pmol SSB in 10 µl, 2% agarose in TAE; titration 1 nM SSB with 0-0.8 nM (dT)76; details: protein: recombinant; tags: none stated (NdeI/HindIII in pET30Ek/LIC, start and stop codon in primers); chain copies: 4; label: 5'-fluorescein (EMSA); single strand
T1 sequence: B4 chain

TmaSSB [2] = molecular target: T2, TmaSSB (Thermotoga maritima MSB8 (DSM 3106), UniProt Q9WZ73 1-141); assay: as above; details: protein: recombinant; tags: none stated (NdeI/HindIII in pET30Ek/LIC, start and stop codon in primers); chain copies: 4; label: 5'-fluorescein (EMSA); single strand
T2 sequence: B3 chain

TneSSB [3] = molecular target: T1, TneSSB; assay: EMSA (agarose); 2 or 100 mM NaCl; one tetramer; 20 mM Tris-HCl pH 7.5, 1 mM EDTA, 2 or 100 mM NaCl, 25°C; EMSA 10 pmol oligo (1.5 pmol M13) with 10-200 pmol SSB in 10 µl, 2% agarose in TAE; titration 1 nM SSB with 0-0.8 nM (dT)76; details: protein: recombinant; tags: none stated (NdeI/HindIII in pET30Ek/LIC, start and stop codon in primers); chain copies: 4; label: 5'-fluorescein (EMSA); single strand
TmaSSB [4] = molecular target: T2, TmaSSB; assay: as above; details: protein: recombinant; tags: none stated (NdeI/HindIII in pET30Ek/LIC, start and stop codon in primers); chain copies: 4; label: 5'-fluorescein (EMSA); single strand
[5] = molecular target: the molecule itself; assay: SEC; FPLC analytical gel filtration on a Superdex HR 75 column, calibrated with bovine albumin, ovalbumin, carbon anhydrase and cytochrome C; oligomeric state in solution
TneSSB [6] = molecular target: T1, TneSSB; assay: fluorescence titration (Trp quenching); 2 mM NaCl; cooperative affinity omega*K; site size 68 +/- 2 nt; quench 95%; 20 mM Tris-HCl pH 7.5, 1 mM EDTA, 2 or 100 mM NaCl, 25°C; EMSA 10 pmol oligo (1.5 pmol M13) with 10-200 pmol SSB in 10 µl, 2% agarose in TAE; titration 1 nM SSB with 0-0.8 nM (dT)76; details: protein: recombinant; tags: none stated (NdeI/HindIII in pET30Ek/LIC, start and stop codon in primers); chain copies: 4; single strand
TmaSSB [7] = molecular target: T2, TmaSSB; assay: as above; details: protein: recombinant; tags: none stated (NdeI/HindIII in pET30Ek/LIC, start and stop codon in primers); chain copies: 4; single strand

Binder | binding result (TneSSB [3]) | binding result (TmaSSB [4]) | further results
B1 | – | – | binding result (TneSSB [1]): binds; binding result (TmaSSB [2]): binds
B2 | binds | binds | –
B3 | – | – | stoichiometry N [5]: 4
TTTTTTTTTTTTTTTTTTTTTTTTTTTTTTTTTTT (ssDNA) [(dT)35] | binds | binds | –
B4 | – | – | stoichiometry N [5]: 4
B5 | – | – | binding result (TneSSB [6]): binds; binding result (TmaSSB [7]): binds
B6 | binds | binds | –
